The source of these data is patent US20190160148A1, “COMBINATION OF PEMBROLIZUMAB AND ABEMACICLIB FOR THE TREATMENT OF CANCER” (Eli Lilly and Company, priority 2016, published 2019).

One test relates to CT26 syngeneic tumors. Put plainly: CT26 syngeneic tumor growth, concurrent dosing. The note with it: day 24; abemaciclib 50 mg/kg for 21 days; 178G7 500 μg/dose 1 time per week, 3 doses; versus vehicle. The format is in vivo, Balb/C mice. The source says: CT26 is also a well-known model for immunotherapy. Studies have shown it to be sensitive to inhibitors of a co-inhibitory immune checkpoint including, CTLA-4, PD-1, PD-L1 blockade. Established sensitivity of CT26, and well known range of therapeutic efficacy of immunotherapeutic intervention make it an appropriate model for screening the activity of checkpoint immunotherapies (Grosso and Jure-Kunkel, Cancer Immunity Vol. 13, p. 5, January 2013) (Duraiswamy et al, Cancer Research, Jun. 15, 2013 73; 3591).
CT26 is a murine model, and accordingly, antibodies used in the CT26 model must bind the mouse target protein. […]
Relative changes in tumor volume compared to control are analyzed at day 24, at the point where the most animals remained in all groups for proper statistical comparison. Relative changes in tumor volume (% ΔT/C) are calculated using the formula % ΔT/C=100×ΔT/ΔC, whereby T=mean tumor volume of the compound treated group, ΔT=mean tumor volume of the compound treated group minus the mean tumor volume on the baseline day, C=mean tumor volume of the control (vehicle) group, and ΔC=mean tumor volume of the control group minus the mean tumor volume on the baseline day. […]

Another test deals with PD-L1/PD-1 interaction (Mus musculus, UniProt Q9EP73). Put plainly: Blockade of PD-1 binding to PD-L1. The note with it: anti-murine PD-L1 clone. The source says:
CT26 is a murine model, and accordingly, antibodies used in the CT26 model must bind the mouse target protein. To model co-inhibitory immune checkpoint therapy, in particular blockade of PD-L1/PD-1 mediated inhibition, anti-murine PD-L1 clone, 178G7 (Known herein in the examples as: anti-PD-L1 antibody or anti-PD-L1 therapy or anti-PD-L1), is produced. The HC of 178G7 is SEQ ID NO: 11, and the LC of 178G7 is SEQ ID NO: 12. […] In particular, 178G7 is used as a a surrogate agents that prevent PD-1 mediated inhibition by PD-L1. as both 178G7 and pembrolizumab block the interaction of PD-1 and PD-L1. 178G7 competes with previously identified surrogate antibody 10F.9G2 known to block PD-L1/PD-1 interaction and is a known surrogate for anti-human antibodies in the clinic (Eppihimer et al. Microcirculation 2002:9(2):133).

Chain of PD-L1/PD-1 interaction (Q9EP73 19-290): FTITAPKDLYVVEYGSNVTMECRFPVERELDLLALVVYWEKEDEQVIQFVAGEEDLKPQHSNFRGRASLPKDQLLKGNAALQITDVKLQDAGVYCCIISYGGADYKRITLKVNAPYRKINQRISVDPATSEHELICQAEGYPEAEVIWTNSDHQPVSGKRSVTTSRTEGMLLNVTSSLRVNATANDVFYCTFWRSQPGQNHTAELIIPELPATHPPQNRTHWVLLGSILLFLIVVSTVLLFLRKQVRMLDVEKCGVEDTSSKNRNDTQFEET

Take `CCN1CCN(Cc2ccc(Nc3ncc(F)c(-c4cc(F)c5nc(C)n(C(C)C)c5c4)n3)nc2)CC1` [abemaciclib, [5-(4-ethyl-piperazin-1-ylmethyl)-pyridin-2-yl]-[5-fluoro-4-(7-fluoro-3-isopropyl-2-methyl-3H-benzoimidazol-5-yl)-pyrimidin-2-yl]-amine]: the “%T/C (relative change in tumor volume compared to control)” value in the test on CT26 syngeneic tumors came out at 22.3%.

B1: Anti-PD-L1 antibody: anti-murine PD-L1 clone 178G7, HC SEQ ID NO: 11, LC SEQ ID NO: 12; surrogate that blocks PD-1/PD-L1 interaction (antibody)
heavy: QVQLQQSGADLAKPGSSVKISCKASGYNFNSYYINWIKQTTGQGLEYIGYINTVSGTTKYSEKFKGKATLTVDKSSSTAFMQLSSLTPDDSAVYYCARGTIVLDDYWGQGVKVTVSSAETTAPSVYPLAPGTALKSNSMVTLGCLVKGYFPEPVTVTWNSGALSSGVHTFPAVLQSGLYTLTSSVTVPSSTWPSQTVTCNVAHPASSTKVDKKIVPRNCGGDCKPCICTGSEVSSVFIFPSKPKDVLTITLTPKVTCVVVDISQDDPEVHFSWFVDDVEVHTAQTRPPEEQFNSTFRSVSELPILHQDWLNGRTFRCKVTSAAFPSPIEKTISKPEGRTQVPHVYTMSPTKEEMTQNEVSITCMVKGFYPPDIYVEWQMNGQPQENYKNTPPTMDTDGSYFLYSKLNVKKEKWQQGNTFTCSVLHEGLHNHHTEKSLSHSPGK
light: DIVMTQTPSSQAVSAGEKVTMSCKSSQSLLYNEKKKNYLAWYQQKPGQSPKLLIYWASTRESGVPDRFLGSGSGTDFTLTINSVQAEDLAVYYCQQSYDFPRTFGGGTKLELKRADAAPTVSIFPPSTEQLATGGASVVCLMNNFYPRDISVKWKIDGTERRDGVLDSVTDQDSKDSTYSMSSTLSLTKADYESHNLYTCEVVHKTSSSPVVKSFNRNEC
On to B1, for which the “%T/C (relative change in tumor volume compared to control)” value in the test with CT26 syngeneic tumors is 56.1%. The “blocking of PD-1 binding to PD-L1” value with PD-L1/PD-1 interaction is given as “blocks PD-1 binding to PD-L1”.
